The target in series [1] is MmsR, LysR-type transcriptional activator protein of Pseudomonas denitrificans, tagged with six histidine residues at the C-terminus (Pseudomonas denitrificans ATCC 13867). Briefly: native gel or EMSA + SEC; native PAGE and/or gel filtration of purified His-tagged MmsR at the high concentration of 550 nM; monomer to dimer. For orientation: In EMSA bound probe runs differently from free probe, usually more slowly.

The next series has as its target T1, MmsR (Pseudomonas denitrificans (nom. rej.), UniProt A0A9X7MYS1).
T1 construct: gene F1C79_09590; cell rows: native chromosomal MmsR; gene divergent from mmsA
T1 sequence (A0A9X7MYS1 1-298): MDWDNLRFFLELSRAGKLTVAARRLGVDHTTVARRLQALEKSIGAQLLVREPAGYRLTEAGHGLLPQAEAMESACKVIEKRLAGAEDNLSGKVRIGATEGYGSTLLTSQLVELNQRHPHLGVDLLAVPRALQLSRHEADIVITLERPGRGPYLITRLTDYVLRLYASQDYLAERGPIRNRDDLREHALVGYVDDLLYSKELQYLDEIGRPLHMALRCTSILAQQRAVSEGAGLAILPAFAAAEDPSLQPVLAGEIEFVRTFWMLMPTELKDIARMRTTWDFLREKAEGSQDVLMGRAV
Briefly: EMSA with mmsA promoter DNA, purified MmsR with and without inducer. Particulars: 25 mM 3-HP; 40 nM DNA probe; pH 7.4, 750 mM KCl; effector of DNA binding (inducer).

Series [2] has as its target T2, MmsR (LysR-type transcriptional activator, C4-LysR) (Pseudomonas denitrificans ATCC 13867, UniProt A0A9X7MYS1 1-298).
T2 sequence: T1 sequence (A0A9X7MYS1 1-298)
The series can be described thus: DNase I footprinting; no 3-HP; O1 more protected than O2; 50 mM Tris pH 7.4, 750 mM KCl (1X as printed), 0.5 mM DTT, 0.5 mM EDTA, room temperature; EMSA 40 nM DNA, 0-48.5 nM MmsR, 30 min; footprinting 230 nM DNA, 0-1.2 uM MmsR. Particulars: protein: recombinant; tags: C-terminal His6 (pET30b+); chain copies: 2; blunt.

For series [3], the target named is T2, MmsR (LysR-type transcriptional …). Briefly: EMSA; no 3-HP; 50 mM Tris pH 7.4, 750 mM KCl (1X as printed), 0.5 mM DTT, 0.5 mM EDTA, room temperature; EMSA 40 nM DNA, 0-48.5 nM MmsR, 30 min; footprinting 230 nM DNA, 0-1.2 uM MmsR. The settings on record: protein: recombinant; tags: C-terminal His6 (pET30b+); chain copies: 2; label: none (SYBR Green stain); blunt.

Series [4] shares this target. The series can be described thus: EMSA; no 3-HP; stronger shift than F1M2; 50 mM Tris pH 7.4, 750 mM KCl (1X as printed), 0.5 mM DTT, 0.5 mM EDTA, room temperature; EMSA 40 nM DNA, 0-48.5 nM MmsR, 30 min; footprinting 230 nM DNA, 0-1.2 uM MmsR. Particulars: protein: recombinant; tags: C-terminal His6 (pET30b+); chain copies: 2; label: none (SYBR Green stain); blunt.

One may read the stoichiometry N as a count of units in the complex or per binding partner. As to “MmsR, LysR-type transcriptional activator protein of Pseudomonas denitrificans, tagged with six histidine residues at the C-terminus (natural protein)”, the stoichiometry N in series [1] is 2. Take `O=C(O)CCO` [compound 1, 3-hydroxypropionic acid]: at MmsR, the “EMSA with mmsA promoter DNA, purified MmsR with and without inducer” value was 3-HP promotes the binding affinity between MmsR and the PmmsA promoter.

B1: 169 bp footprinting fragment (dsDNA)
DNA 1: CCGCAGGTTGTCCCAGTCCATGTCAGCCTCAGCGCACCTCGAATGTGCAAAAACGCAGACCATACTTGCACATCACCGCATTGAGTACATCAAAAATGCACTGTTAGGATCGATCCAGACAACAAAAAAGCCACAGGCTGGGAGAATCCCGATGACCGCAACTGCCCCG
DNA 2: CGGGGCAGTTGCGGTCATCGGGATTCTCCCAGCCTGTGGCTTTTTTGTTGTCTGGATCGATCCTAACAGTGCATTTTTGATGTACTCAATGCGGTGATGTGCAAGTATGGTCTGCGTTTTTGCACATTCGAGGTGCGCTGAGGCTGACATGGACTGGGACAACCTGCGG
Take B1: the binding result in series [2] is given as “binds”.

B2: F12 (O1 and O2 intact) (dsDNA)
DNA 1: GTCAGCCTCAGCGCACCTCGAATGTGCAAAAACGCAGACCATACTTGCACATCACCGCATTGAGTACATCAAAAATGCACTGTTAGGATCGATCCAGACAACAAAAAAGCCACAGGCTGGGAGAATCCCG
DNA 2: CGGGATTCTCCCAGCCTGTGGCTTTTTTGTTGTCTGGATCGATCCTAACAGTGCATTTTTGATGTACTCAATGCGGTGATGTGCAAGTATGGTCTGCGTTTTTGCACATTCGAGGTGCGCTGAGGCTGAC
For B2, in series [3], the binding result is given as “binds”.

B3: F12M (O1 intact, O2 mutant) (dsDNA)
DNA 1: GTCAGCCTCAGCGCACCTCGAATGTGCAAAAACGCAGACCATACTTGCACATCACCGCATTGAGTACATCAATCCTTGCTTGTTAGGATCGCGCCCAGGCACAAAAAAGCCACAGGCTGGGAGAATCCCG
DNA 2: CGGGATTCTCCCAGCCTGTGGCTTTTTTGTGCCTGGGCGCGATCCTAACAAGCAAGGATTGATGTACTCAATGCGGTGATGTGCAAGTATGGTCTGCGTTTTTGCACATTCGAGGTGCGCTGAGGCTGAC
Take B3: the binding result in series [4] is on record as “binds”.

For the origin of these results see PMC6441110, “A novel 3-hydroxypropionic acid-inducible promoter regulated by the LysR-type transcriptional activator protein MmsR of Pseudomonas denitrificans” (Scientific Reports, 2019).
